From patent US20120219567A1 (Biogen, published 2012)

T1: AP-Nogo-66 (UniProt Q9NQC3 1055-1120)
T1 construct: domain: Nogo-66; also called AP-Ng-66; Nogo-66 ligand; not shown: alkaline phosphatase (AP) moiety
T1 sequence (looked up): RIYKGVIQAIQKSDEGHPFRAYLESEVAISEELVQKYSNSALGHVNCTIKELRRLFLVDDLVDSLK


Target: T1, AP-Nogo-66
Assay: AP-ligand binding to transfected COS-7 cells
Experimental: In order to probe the NgR domains that interact with Aβ and Nogo-66, a strategy based on the crystal structure of NgR was employed. A number of human NgR surface-accessible residues were mutated to Ala either individually or as groups of adjacent residues (Table 3), and resultant ligand binding characteristics were assessed. The ligand concentrations were AP, 30 nM, AP-Nogo-66, 5 nM, AP-Aβ(1-28), 50 nM. NgR mutagenesis has been previously described. Hu et al., J Neurosci 25:5298-5304 (2005); Fournier et al., J Neurosci 23:1416-1423 (2003). The expression of each mutant NgR protein was verified by immunohistochemical detection at the surface of cells transfected with expression vector (FIG. 2a). Bound AP was stained and measured using NIH image software. Mutants of human NgR were detected on the surface of transfected COS-7 immunofluorescently. For each of the mutants with altered binding characteristics, expression of immunoreactive NgR protein with electrophoretic mobility similar to wild type was also confirmed by immunoblot (FIG. 2c). Whole COS-7 cell lysates expressing NgR mutants were subjected to SDS-PAGE and blotted with anti-NgR antibodies. The mobility of each mutant was indistinguishable from wild type NgR, except for the mutations in N-linked glycosylation sites (N82 and N179). The binding of both AP-Aβ(1-28) and AP-Nogo-66 ligands to cells expressing this collection of NgR mutant proteins was assessed at concentrations equal to the predetermined Kd's of the ligands (FIG. 2b, d).

Row | Binder | binding result
1 | human NgR mutant 171, 172, 175, 176, 196, 199, 220, 223, 224, 250 (mutated to alanine) (receptor, Label runs over two printed rows (r20c1 and r21c1)) CPGACVCYNEPKVTTSCPQQGLQAVPVGIPAASQRIFLHGNRISHVPAASFRACRNLTILWLHSNVLARIDAAAFTGLALLEQLDLSDNAQLRSVDPATFHGLGRLHTLHLDRCGLQELGPGLFRGLAALQYLYLQDNALQALPAATFAALGNLTHLFLHGNRISSVPEAAFAGLHSLDRLLLHQNRVAHVHPAAFAALGRLMTLYLFANNLSALPTEALAPLAALQYLRLNDNPWVCDCRARPLWAWLQKFRGSSSEVPCSLPQRLAGRDLKRLAANDLQGCAVATGPYHPIWTGRATDEEPLGLPKCCQPDAADKASVLEPGRPASAGNALKGRVPPGDSPPGNGSGPRHINDSPFGTLPGSAEPPLTAVRPEGSEPPGFPTSGPRRRPGCSRKNRTRSHCRLGQAGSGGGGTGDSE | no binding (tested: 5 nM)
2 | human NgR mutant 158, 160 (mutated to alanine) (receptor) CPGACVCYNEPKVTTSCPQQGLQAVPVGIPAASQRIFLHGNRISHVPAASFRACRNLTILWLHSNVLARIDAAAFTGLALLEQLDLSDNAQLRSVDPATFHGLGRLHTLHLDRCGLQELGPGLFRGLAALQALALQDNALQALPDDTFRDLGNLTHLFLHGNRISSVPERAFRGLHSLDRLLLHQNRVAHVHPHAFRDLGRLMTLYLFANNLSALPTEALAPLRALQYLRLNDNPWVCDCRARPLWAWLQKFRGSSSEVPCSLPQRLAGRDLKRLAANDLQGCAVATGPYHPIWTGRATDEEPLGLPKCCQPDAADKASVLEPGRPASAGNALKGRVPPGDSPPGNGSGPRHINDSPFGTLPGSAEPPLTAVRPEGSEPPGFPTSGPRRRPGCSRKNRTRSHCRLGQAGSGGGGTGDSE | no binding (tested: 5 nM)
3 | human NgR mutant 111, 113, 114, 138 (mutated to alanine) (receptor) CPGACVCYNEPKVTTSCPQQGLQAVPVGIPAASQRIFLHGNRISHVPAASFRACRNLTILWLHSNVLARIDAAAFTGLALLEQLALAANAQLRSVDPATFHGLGRLHTLHLARCGLQELGPGLFRGLAALQYLYLQDNALQALPDDTFRDLGNLTHLFLHGNRISSVPERAFRGLHSLDRLLLHQNRVAHVHPHAFRDLGRLMTLYLFANNLSALPTEALAPLRALQYLRLNDNPWVCDCRARPLWAWLQKFRGSSSEVPCSLPQRLAGRDLKRLAANDLQGCAVATGPYHPIWTGRATDEEPLGLPKCCQPDAADKASVLEPGRPASAGNALKGRVPPGDSPPGNGSGPRHINDSPFGTLPGSAEPPLTAVRPEGSEPPGFPTSGPRRRPGCSRKNRTRSHCRLGQAGSGGGGTGDSE | no binding (tested: 5 nM)
4 | human NgR mutant 232, 234 (mutated to alanine) (receptor) CPGACVCYNEPKVTTSCPQQGLQAVPVGIPAASQRIFLHGNRISHVPAASFRACRNLTILWLHSNVLARIDAAAFTGLALLEQLDLSDNAQLRSVDPATFHGLGRLHTLHLDRCGLQELGPGLFRGLAALQYLYLQDNALQALPDDTFRDLGNLTHLFLHGNRISSVPERAFRGLHSLDRLLLHQNRVAHVHPHAFRDLGRLMTLALAANNLSALPTEALAPLRALQYLRLNDNPWVCDCRARPLWAWLQKFRGSSSEVPCSLPQRLAGRDLKRLAANDLQGCAVATGPYHPIWTGRATDEEPLGLPKCCQPDAADKASVLEPGRPASAGNALKGRVPPGDSPPGNGSGPRHINDSPFGTLPGSAEPPLTAVRPEGSEPPGFPTSGPRRRPGCSRKNRTRSHCRLGQAGSGGGGTGDSE | no binding (tested: 5 nM)
5 | human NgR mutant 211, 213, 237, 256, 259, 284 (mutated to alanine) (receptor) CPGACVCYNEPKVTTSCPQQGLQAVPVGIPAASQRIFLHGNRISHVPAASFRACRNLTILWLHSNVLARIDAAAFTGLALLEQLDLSDNAQLRSVDPATFHGLGRLHTLHLDRCGLQELGPGLFRGLAALQYLYLQDNALQALPDDTFRDLGNLTHLFLHGNRISSVPERAFRGLHSLDRLLLHANAVAHVHPHAFRDLGRLMTLYLFANALSALPTEALAPLRALQYLALNANPWVCDCRARPLWAWLQKFRGSSSAVPCSLPQRLAGRDLKRLAANDLQGCAVATGPYHPIWTGRATDEEPLGLPKCCQPDAADKASVLEPGRPASAGNALKGRVPPGDSPPGNGSGPRHINDSPFGTLPGSAEPPLTAVRPEGSEPPGFPTSGPRRRPGCSRKNRTRSHCRLGQAGSGGGGTGDSE | no binding (tested: 5 nM)
6 | human NgR mutant 182, 186, 210 (mutated to alanine) (receptor) CPGACVCYNEPKVTTSCPQQGLQAVPVGIPAASQRIFLHGNRISHVPAASFRACRNLTILWLHSNVLARIDAAAFTGLALLEQLDLSDNAQLRSVDPATFHGLGRLHTLHLDRCGLQELGPGLFRGLAALQYLYLQDNALQALPDDTFRDLGNLTALFLAGNRISSVPERAFRGLHSLDRLLLAQNRVAHVHPHAFRDLGRLMTLYLFANNLSALPTEALAPLRALQYLRLNDNPWVCDCRARPLWAWLQKFRGSSSEVPCSLPQRLAGRDLKRLAANDLQGCAVATGPYHPIWTGRATDEEPLGLPKCCQPDAADKASVLEPGRPASAGNALKGRVPPGDSPPGNGSGPRHINDSPFGTLPGSAEPPLTAVRPEGSEPPGFPTSGPRRRPGCSRKNRTRSHCRLGQAGSGGGGTGDSE | no binding (tested: 5 nM)
7 | human NgR mutant 182, 186 (mutated to alanine) (receptor) CPGACVCYNEPKVTTSCPQQGLQAVPVGIPAASQRIFLHGNRISHVPAASFRACRNLTILWLHSNVLARIDAAAFTGLALLEQLDLSDNAQLRSVDPATFHGLGRLHTLHLDRCGLQELGPGLFRGLAALQYLYLQDNALQALPDDTFRDLGNLTALFLAGNRISSVPERAFRGLHSLDRLLLHQNRVAHVHPHAFRDLGRLMTLYLFANNLSALPTEALAPLRALQYLRLNDNPWVCDCRARPLWAWLQKFRGSSSEVPCSLPQRLAGRDLKRLAANDLQGCAVATGPYHPIWTGRATDEEPLGLPKCCQPDAADKASVLEPGRPASAGNALKGRVPPGDSPPGNGSGPRHINDSPFGTLPGSAEPPLTAVRPEGSEPPGFPTSGPRRRPGCSRKNRTRSHCRLGQAGSGGGGTGDSE | no binding (tested: 5 nM)
8 | human NgR mutant 211, 213 (mutated to alanine) (receptor) CPGACVCYNEPKVTTSCPQQGLQAVPVGIPAASQRIFLHGNRISHVPAASFRACRNLTILWLHSNVLARIDAAAFTGLALLEQLDLSDNAQLRSVDPATFHGLGRLHTLHLDRCGLQELGPGLFRGLAALQYLYLQDNALQALPDDTFRDLGNLTHLFLHGNRISSVPERAFRGLHSLDRLLLHANAVAHVHPHAFRDLGRLMTLYLFANNLSALPTEALAPLRALQYLRLNDNPWVCDCRARPLWAWLQKFRGSSSEVPCSLPQRLAGRDLKRLAANDLQGCAVATGPYHPIWTGRATDEEPLGLPKCCQPDAADKASVLEPGRPASAGNALKGRVPPGDSPPGNGSGPRHINDSPFGTLPGSAEPPLTAVRPEGSEPPGFPTSGPRRRPGCSRKNRTRSHCRLGQAGSGGGGTGDSE | no binding (tested: 5 nM)
9 | human NgR mutant 111, 113, 114 (mutated to alanine) (receptor) CPGACVCYNEPKVTTSCPQQGLQAVPVGIPAASQRIFLHGNRISHVPAASFRACRNLTILWLHSNVLARIDAAAFTGLALLEQLALAANAQLRSVDPATFHGLGRLHTLHLDRCGLQELGPGLFRGLAALQYLYLQDNALQALPDDTFRDLGNLTHLFLHGNRISSVPERAFRGLHSLDRLLLHQNRVAHVHPHAFRDLGRLMTLYLFANNLSALPTEALAPLRALQYLRLNDNPWVCDCRARPLWAWLQKFRGSSSEVPCSLPQRLAGRDLKRLAANDLQGCAVATGPYHPIWTGRATDEEPLGLPKCCQPDAADKASVLEPGRPASAGNALKGRVPPGDSPPGNGSGPRHINDSPFGTLPGSAEPPLTAVRPEGSEPPGFPTSGPRRRPGCSRKNRTRSHCRLGQAGSGGGGTGDSE | no binding (tested: 5 nM)
10 | human NgR mutant 182, 186, 158, 160 (mutated to alanine) (receptor) CPGACVCYNEPKVTTSCPQQGLQAVPVGIPAASQRIFLHGNRISHVPAASFRACRNLTILWLHSNVLARIDAAAFTGLALLEQLDLSDNAQLRSVDPATFHGLGRLHTLHLDRCGLQELGPGLFRGLAALQALALQDNALQALPDDTFRDLGNLTALFLAGNRISSVPERAFRGLHSLDRLLLHQNRVAHVHPHAFRDLGRLMTLYLFANNLSALPTEALAPLRALQYLRLNDNPWVCDCRARPLWAWLQKFRGSSSEVPCSLPQRLAGRDLKRLAANDLQGCAVATGPYHPIWTGRATDEEPLGLPKCCQPDAADKASVLEPGRPASAGNALKGRVPPGDSPPGNGSGPRHINDSPFGTLPGSAEPPLTAVRPEGSEPPGFPTSGPRRRPGCSRKNRTRSHCRLGQAGSGGGGTGDSE | no binding (tested: 5 nM)
11 | human NgR mutant 189, 191, 211, 213 (mutated to alanine) (receptor) CPGACVCYNEPKVTTSCPQQGLQAVPVGIPAASQRIFLHGNRISHVPAASFRACRNLTILWLHSNVLARIDAAAFTGLALLEQLDLSDNAQLRSVDPATFHGLGRLHTLHLDRCGLQELGPGLFRGLAALQYLYLQDNALQALPDDTFRDLGNLTHLFLHGNAIASVPERAFRGLHSLDRLLLHANAVAHVHPHAFRDLGRLMTLYLFANNLSALPTEALAPLRALQYLRLNDNPWVCDCRARPLWAWLQKFRGSSSEVPCSLPQRLAGRDLKRLAANDLQGCAVATGPYHPIWTGRATDEEPLGLPKCCQPDAADKASVLEPGRPASAGNALKGRVPPGDSPPGNGSGPRHINDSPFGTLPGSAEPPLTAVRPEGSEPPGFPTSGPRRRPGCSRKNRTRSHCRLGQAGSGGGGTGDSE | no binding (tested: 5 nM)
